Results on six molecules are retold here after patent US20260216242A1, “ALPP-SPECIFIC VARIANT ANTIGEN BINDING MOLECULES” (ALMAC DISCOVERY LIMITED, priority 2022, published 2026).

Substitutions are numbered along the chain they refer to. Names and notes keep the numbering of the source.

A word on the IC50: it is the concentration that gives 50% inhibition. A lower IC50 goes with greater potency in that assay.

Assay [1] deals with ALPP/ALPPL2 on ALPP/ALPPL2 positive cancer cells (MKN1, NCI-H1651, NCI-N87, Caov-3, HPAC). The assay is described as follows: cell-based or functional assay.
Assay [2] addresses ALPP/ALPPL2 on ALPP/ALPPL2 positive cancer cells. The assay is described as follows: cell-based or functional assay.

B1: D10 E06-hFc (S239/442C T366Y/Y407T), [G4S]1 linker, MC-vc-PAB-MMAE conjugate, #677 (Fc fusion, DAR 4)
chain 1: QVQLVESGGGLVQPGGSLRLSCAASGSIFSVNTMGWYRQAPGKQRDLVAVATSGGTIHYADSVKGRFTISRDNAKNTVYLQMNSLKPEDTAVYYCNLVVPYGMIAGDHDYWGQGTKVTVSSGGGGSEPKSSDKTHTCPPCPAPELLGGPCVFLFPPKPKDTLMISRTPEVTCVVVDVSHEDPEVKFNWYVDGVEVHNAKTKPREEQYNSTYRVVSVLTVLHQDWLNGKEYKCKVSNKALPAPIEKTISKAKGQPREPQVYTLPPSRDELTKNQVSLYCLVKGFYPSDIAVEWESNGQPENNYKTTPPVLDSDGSFFLYSKLTVDKSRWQQGNVFSCSVMHEALHNHYTQKSLCLSPGK
chain 2: QVHLVESGGGLVQAGGSLRLSCAASRRSFSEYAMGWFRQAPGKEREFVAAIGWSGVIEYADSVKGRFTISRDNAKDTVYLQMNSLKPEDTAVYYCAAGLGIRVVSQTPAYWGQGTQVTVSSGGGGSEPKSSDKTHTCPPCPAPELLGGPCVFLFPPKPKDTLMISRTPEVTCVVVDVSHEDPEVKFNWYVDGVEVHNAKTKPREEQYNSTYRVVSVLTVLHQDWLNGKEYKCKVSNKALPAPIEKTISKAKGQPREPQVYTLPPSRDELTKNQVSLTCLVKGFYPSDIAVEWESNGQPENNYKTTPPVLDSDGSFFLTSKLTVDKSRWQQGNVFSCSVMHEALHNHYTQKSLCLSPGK
modifications: here or on the partner: MC-vc-PAB-MMAE on Cys of S239C and S442C (EU numbering)
For the molecule B1, in assay [1], the % viability remaining at 96 h, MKN1 cells stood at 5.3%; the % viability remaining at 96 h, NCI-H1651 cells came to 28.9%; the % viability remaining at 96 h, NCI-N87 cells was 25.5%; the IC50 at 96 h, cell-killing of MKN1 cells turned out to be 31.8 nM. Moreover, in assay [1], the IC50 at 96 h, cell-killing of NCI-H1651 cells amounted to 1.3 nM and the IC50 at 96 h, cell-killing of NCI-N87 cells came out at 0.6 nM.

B2: D10 E10-hFc (S239/442C T366Y/Y407T), [G4S]1 linker, MC-vc-PAB-MMAE conjugate, #678 (Fc fusion, DAR 4)
chain 1: B1 chain 1
chain 2: QVQLVESGGGLVQAGGSLRLSCAVSGRALSDYNIGWFRQAPGKEREFVARKTWDGSSTRYDDSVKGRFTVSIEDAKNTAYLQMSSLKTEDTAVYYCAAGRYSRARGWEYDYWGQGTQVTVSSGGGGSEPKSSDKTHTCPPCPAPELLGGPCVFLFPPKPKDTLMISRTPEVTCVVVDVSHEDPEVKFNWYVDGVEVHNAKTKPREEQYNSTYRVVSVLTVLHQDWLNGKEYKCKVSNKALPAPIEKTISKAKGQPREPQVYTLPPSRDELTKNQVSLTCLVKGFYPSDIAVEWESNGQPENNYKTTPPVLDSDGSFFLTSKLTVDKSRWQQGNVFSCSVMHEALHNHYTQKSLCLSPGK
modifications: here or on the partner: MC-vc-PAB-MMAE on Cys of S239C and S442C (EU numbering)
B2: in assay [1], the % viability remaining at 96 h, MKN1 cells is 24.5%; the % viability remaining at 96 h, NCI-H1651 cells is 31%; the % viability remaining at 96 h, NCI-N87 cells was 23.6%; the IC50 at 96 h, cell-killing of MKN1 cells was determined as 8.1 nM. Also, in assay [1], the IC50 at 96 h, cell-killing of NCI-H1651 cells is 0.6 nM and the IC50 at 96 h, cell-killing of NCI-N87 cells amounted to 0.5 nM.

B3: D10 F05-hFc (S239/442C T366Y/Y407T), [G4S]1 linker, MC-vc-PAB-MMAE conjugate, #679 (Fc fusion, DAR 4)
chain 1: B1 chain 1
chain 2: B2 chain 2 with V24A, L29F, S30G, K51R, E73D, D74N, S84N, A104V
modifications: here or on the partner: MC-vc-PAB-MMAE on Cys of S239C and S442C (EU numbering)
On to B3, for which, in assay [1], the % viability remaining at 96 h, MKN1 cells is 25.2%; the % viability remaining at 96 h, NCI-H1651 cells is 31.2%; the % viability remaining at 96 h, NCI-N87 cells was found to be 21.8%; the IC50 at 96 h, cell-killing of MKN1 cells amounted to 9.7 nM. In assay [1], this molecule displayed an IC50 at 96 h, cell-killing of NCI-H1651 cells of 0.8 nM and an IC50 at 96 h, cell-killing of NCI-N87 cells of 0.6 nM.

B4: A06 F05-hFc (S239/442C T366Y/Y407T), [G4S]3 linker, MC-vc-PAB-MMAE conjugate, #665 (Fc fusion, DAR 4)
chain 1: QVHLVESGGGLVQAGGSLRLSCAASGRTFLSMGWFRQAPGKEREFVAAISWTGGSTGYADSVKGRFTISRESDKETMYLQMNSLKPEDTAVYYCAARGDVYYGGDDATRYKYWGQGTQVTVSSGGGGSGGGGSGGGGSEPKSSDKTHTCPPCPAPELLGGPCVFLFPPKPKDTLMISRTPEVTCVVVDVSHEDPEVKFNWYVDGVEVHNAKTKPREEQYNSTYRVVSVLTVLHQDWLNGKEYKCKVSNKALPAPIEKTISKAKGQPREPQVYTLPPSRDELTKNQVSLYCLVKGFYPSDIAVEWESNGQPENNYKTTPPVLDSDGSFFLYSKLTVDKSRWQQGNVFSCSVMHEALHNHYTQKSLCLSPGK
chain 2: QVQLVESGGGLVQAGGSLRLSCAASGRAFGDYNIGWFRQAPGKEREFVARRTWDGSSTRYDDSVKGRFTVSIDNAKNTAYLQMNSLKTEDTAVYYCAAGRYSRVRGWEYDYWGQGTQVTVSSGGGGSGGGGSGGGGSEPKSSDKTHTCPPCPAPELLGGPCVFLFPPKPKDTLMISRTPEVTCVVVDVSHEDPEVKFNWYVDGVEVHNAKTKPREEQYNSTYRVVSVLTVLHQDWLNGKEYKCKVSNKALPAPIEKTISKAKGQPREPQVYTLPPSRDELTKNQVSLTCLVKGFYPSDIAVEWESNGQPENNYKTTPPVLDSDGSFFLTSKLTVDKSRWQQGNVFSCSVMHEALHNHYTQKSLCLSPGK
modifications: here or on the partner: MC-vc-PAB-MMAE on Cys of S239C and S442C (EU numbering)
Consider B4, for which, in assay [1], the % viability remaining at 96 h, MKN1 cells was found to be 31.6%; the % viability remaining at 96 h, NCI-H1651 cells was determined as 25%; the % viability remaining at 96 h, NCI-N87 cells turned out to be 27%; the IC50 at 96 h, cell-killing of MKN1 cells was found to be 0.7 nM. Besides, in assay [1], the IC50 at 96 h, cell-killing of NCI-H1651 cells was 0.4 nM and the IC50 at 96 h, cell-killing of NCI-N87 cells came to 5.8 nM.

B5: D10 E06-hFc (S239/442C T366Y/Y407T) [G4S]3 conjugated to MC-vc-PAB-MMAE (Fc fusion, DAR 4.0)
chain 1: QVQLVESGGGLVQPGGSLRLSCAASGSIFSVNTMGWYRQAPGKQRDLVAVATSGGTIHYADSVKGRFTISRDNAKNTVYLQMNSLKPEDTAVYYCNLVVPYGMIAGDHDYWGQGTKVTVSSGGGGSGGGGSGGGGSEPKSSDKTHTCPPCPAPELLGGPCVFLFPPKPKDTLMISRTPEVTCVVVDVSHEDPEVKFNWYVDGVEVHNAKTKPREEQYNSTYRVVSVLTVLHQDWLNGKEYKCKVSNKALPAPIEKTISKAKGQPREPQVYTLPPSRDELTKNQVSLYCLVKGFYPSDIAVEWESNGQPENNYKTTPPVLDSDGSFFLYSKLTVDKSRWQQGNVFSCSVMHEALHNHYTQKSLCLSPGK
chain 2: QVHLVESGGGLVQAGGSLRLSCAASRRSFSEYAMGWFRQAPGKEREFVAAIGWSGVIEYADSVKGRFTISRDNAKDTVYLQMNSLKPEDTAVYYCAAGLGIRVVSQTPAYWGQGTQVTVSSGGGGSGGGGSGGGGSEPKSSDKTHTCPPCPAPELLGGPCVFLFPPKPKDTLMISRTPEVTCVVVDVSHEDPEVKFNWYVDGVEVHNAKTKPREEQYNSTYRVVSVLTVLHQDWLNGKEYKCKVSNKALPAPIEKTISKAKGQPREPQVYTLPPSRDELTKNQVSLTCLVKGFYPSDIAVEWESNGQPENNYKTTPPVLDSDGSFFLTSKLTVDKSRWQQGNVFSCSVMHEALHNHYTQKSLCLSPGK
modifications: here or on the partner: MC-vc-PAB-MMAE on Cys 239 and Cys 442 (S239C, S442C, EU numbering)
In assay [2], B5 gave a % viability remaining, MDA-MB-468 cells of 16%; a % viability remaining, MKN-1 cells of 12%; a % viability remaining, NCI-H1651 cells of 21%; a % viability remaining, NCI-N87 cells of 34%. In addition, in assay [2], the IC50 at 96 h (nM), cell-killing of MDA-MB-468 cells (Cell Titre Glo) amounted to 1.55 nM; the 50% inhibitory concentration (IC50) at 96 h (nM), cell-killing of MKN-1 cells (Cell Titre Glo) amounted to 0.1 nM; the IC50 at 96 h (nM), cell-killing of NCI-H1651 cells (Cell Titre Glo) came to 0.53 nM; the IC50 at 96 h (nM), cell-killing of NCI-N87 cells (Cell Titre Glo) came out at 3.6 nM.

B6: A06 F05-hFc (S239/442C T366Y/Y407T), [G4S]1 linker, MC-vc-PAB-MMAE conjugate, #712 (Fc fusion, DAR 4)
chain 1: QVHLVESGGGLVQAGGSLRLSCAASGRTFLSMGWFRQAPGKEREFVAAISWTGGSTGYADSVKGRFTISRESDKETMYLQMNSLKPEDTAVYYCAARGDVYYGGDDATRYKYWGQGTQVTVSSGGGGSEPKSSDKTHTCPPCPAPELLGGPCVFLFPPKPKDTLMISRTPEVTCVVVDVSHEDPEVKFNWYVDGVEVHNAKTKPREEQYNSTYRVVSVLTVLHQDWLNGKEYKCKVSNKALPAPIEKTISKAKGQPREPQVYTLPPSRDELTKNQVSLYCLVKGFYPSDIAVEWESNGQPENNYKTTPPVLDSDGSFFLYSKLTVDKSRWQQGNVFSCSVMHEALHNHYTQKSLCLSPGK
chain 2: B2 chain 2 with V24A, L29F, S30G, K51R, E73D, D74N, S84N, A104V
modifications: here or on the partner: MC-vc-PAB-MMAE on Cys of S239C and S442C (EU numbering)
Regarding B6, in assay [1], the % viability remaining at 96 h, MKN1 cells was 27.1%; the % viability remaining at 96 h, NCI-H1651 cells was found to be 31.3%; the % viability remaining at 96 h, NCI-N87 cells was 20.7%; the IC50 at 96 h, cell-killing of MKN1 cells amounted to 45.9 nM. In addition, in assay [1], the IC50 at 96 h, cell-killing of NCI-H1651 cells was 0.9 nM and the IC50 at 96 h, cell-killing of NCI-N87 cells was 0.7 nM.
